Experimental findings from article PMC10197521 (bioRxiv, 2023) are described below.

Holding throughout (test): co-IP
Test [1] deals with T1, C-terminally truncated mouse CD4 T1 (mouse, UniProt P06332-1 27-422).
T1 sequence (looked up): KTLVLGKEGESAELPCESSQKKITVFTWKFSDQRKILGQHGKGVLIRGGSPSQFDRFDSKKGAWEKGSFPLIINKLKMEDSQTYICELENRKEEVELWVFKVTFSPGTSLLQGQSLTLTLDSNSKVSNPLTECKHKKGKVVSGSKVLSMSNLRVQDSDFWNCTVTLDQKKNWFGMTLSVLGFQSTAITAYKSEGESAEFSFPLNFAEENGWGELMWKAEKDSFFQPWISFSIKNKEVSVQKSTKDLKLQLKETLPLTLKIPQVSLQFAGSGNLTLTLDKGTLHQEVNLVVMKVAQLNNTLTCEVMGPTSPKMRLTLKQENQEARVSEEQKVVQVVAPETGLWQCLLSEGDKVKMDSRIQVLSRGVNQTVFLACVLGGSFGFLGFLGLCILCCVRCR

Test [2] has as its target T2, T1-TMD (CD4 T1 with GGXXG to GVXXL) (mouse, UniProt P06332-1 27-422, G403V | G406L).
T2 sequence (looked up): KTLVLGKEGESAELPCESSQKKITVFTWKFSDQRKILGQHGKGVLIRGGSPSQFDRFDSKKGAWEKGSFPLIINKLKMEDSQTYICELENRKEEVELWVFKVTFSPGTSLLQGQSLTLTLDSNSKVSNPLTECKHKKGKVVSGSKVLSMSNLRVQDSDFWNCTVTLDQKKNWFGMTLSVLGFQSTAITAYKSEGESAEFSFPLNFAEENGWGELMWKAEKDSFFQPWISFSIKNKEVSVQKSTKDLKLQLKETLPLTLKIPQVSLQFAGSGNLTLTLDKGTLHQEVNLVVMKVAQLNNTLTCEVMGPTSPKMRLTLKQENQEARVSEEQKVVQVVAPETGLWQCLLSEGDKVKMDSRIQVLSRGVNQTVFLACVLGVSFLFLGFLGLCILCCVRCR

A further test addresses T3, T1-Palm (2C) (mouse, UniProt P06332-1 27-422, C418S | C421S).
T3 sequence (looked up): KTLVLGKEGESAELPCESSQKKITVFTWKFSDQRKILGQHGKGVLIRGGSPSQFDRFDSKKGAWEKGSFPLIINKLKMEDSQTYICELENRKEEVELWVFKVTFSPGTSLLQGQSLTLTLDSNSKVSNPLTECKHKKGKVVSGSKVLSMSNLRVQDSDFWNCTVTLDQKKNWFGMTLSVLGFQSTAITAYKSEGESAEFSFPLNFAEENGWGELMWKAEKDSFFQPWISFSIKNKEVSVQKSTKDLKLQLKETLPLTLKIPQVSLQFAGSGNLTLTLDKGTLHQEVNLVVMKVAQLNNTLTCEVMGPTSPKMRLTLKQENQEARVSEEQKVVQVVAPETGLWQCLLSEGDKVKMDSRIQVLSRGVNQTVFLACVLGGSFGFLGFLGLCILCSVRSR

Another test addresses T4, T1-TP (2C) (mouse, UniProt P06332-1 27-422, G403V | G406L | C418S | C421S).
T4 sequence (looked up): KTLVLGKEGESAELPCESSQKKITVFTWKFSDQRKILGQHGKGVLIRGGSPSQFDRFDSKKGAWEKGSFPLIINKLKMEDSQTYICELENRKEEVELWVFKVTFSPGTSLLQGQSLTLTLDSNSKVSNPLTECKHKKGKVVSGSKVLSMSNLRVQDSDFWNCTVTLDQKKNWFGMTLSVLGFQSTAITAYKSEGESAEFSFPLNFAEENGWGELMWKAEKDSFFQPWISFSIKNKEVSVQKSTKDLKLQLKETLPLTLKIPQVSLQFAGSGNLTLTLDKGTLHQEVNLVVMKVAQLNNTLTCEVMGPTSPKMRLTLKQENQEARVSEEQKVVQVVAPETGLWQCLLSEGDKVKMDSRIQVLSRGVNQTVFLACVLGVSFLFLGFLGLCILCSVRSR

In a further test the target is T5, T1-TP (3C) (mouse, UniProt P06332-1 27-422, G403V | G406L | C417S | C418S | C421S).
T5 sequence (looked up): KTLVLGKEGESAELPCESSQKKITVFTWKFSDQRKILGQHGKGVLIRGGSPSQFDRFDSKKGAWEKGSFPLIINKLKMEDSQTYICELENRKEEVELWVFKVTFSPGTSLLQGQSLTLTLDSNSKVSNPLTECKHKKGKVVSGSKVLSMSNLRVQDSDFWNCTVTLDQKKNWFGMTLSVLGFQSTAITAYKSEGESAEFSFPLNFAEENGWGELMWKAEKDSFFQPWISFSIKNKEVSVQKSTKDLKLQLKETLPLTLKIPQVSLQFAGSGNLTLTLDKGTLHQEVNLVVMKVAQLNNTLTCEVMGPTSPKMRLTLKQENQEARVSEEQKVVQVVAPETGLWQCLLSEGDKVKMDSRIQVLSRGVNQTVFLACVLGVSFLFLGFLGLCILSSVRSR

B1: Src kinase LCK (enzyme, UniProt P06240 1-509, looked up)
chain: MGCVCSSNPEDDWMENIDVCENCHYPIVPLDSKISLPIRNGSEVRDPLVTYEGSLPPASPLQDNLVIALHSYEPSHDGDLGFEKGEQLRILEQSGEWWKAQSLTTGQEGFIPFNFVAKANSLEPEPWFFKNLSRKDAERQLLAPGNTHGSFLIRESESTAGSFSLSVRDFDQNQGEVVKHYKIRNLDNGGFYISPRITFPGLHDLVRHYTNASDGLCTKLSRPCQTQKPQKPWWEDEWEVPRETLKLVERLGAGQFGEVWMGYYNGHTKVAVKSLKQGSMSPDAFLAEANLMKQLQHPRLVRLYAVVTQEPIYIITEYMENGSLVDFLKTPSGIKLNVNKLLDMAAQIAEGMAFIEEQNYIHRDLRAANILVSDTLSCKIADFGLARLIEDNEYTAREGAKFPIKWTAPEAINYGTFTIKSDVWSFGILLTEIVTHGRIPYPGMTNPEVIQNLERGYRMVRPDNCPEELYHLMMLCWKERPEDRPTFDYLRSVLDDFFTATEGQYQPQP
On to B1, for which, in test [1], the “Lck DRM AUC (LCK found with CD4, normalised to CD4), percent of WT” value is 28.8 % of WT control; the “Lck DSM AUC (LCK found with CD4, normalised to CD4), percent of WT” value was 16.1 % of WT control; the “Lck Total AUC (LCK found with CD4, normalised to CD4), percent of WT” value was 19.2 % of WT control. Moreover, in test [2], the “Lck DRM AUC (LCK found with CD4, normalised to CD4), percent of T1” value is 62.4 % of T1 control; the “Lck DSM AUC (LCK found with CD4, normalised to CD4), percent of T1” value was 111 % of T1 control; the “Lck Total AUC (LCK found with CD4, normalised to CD4), percent of T1” value was 93 % of T1 control. For the same molecule, in the test with T1-Palm (2C), the “Lck DRM AUC (LCK found with CD4, normalised to CD4), percent of T1” value is 274 % of T1 control; the “Lck DSM AUC (LCK found with CD4, normalised to CD4), percent of T1” value was 131 % of T1 control; the “Lck Total AUC (LCK found with CD4, normalised to CD4), percent of T1” value was 139 % of T1 control. In the test with T1-TP (2C), the “Lck DRM AUC (LCK found with CD4, normalised to CD4), percent of T1” value was 121 % of T1 control; the “Lck DSM AUC (LCK found with CD4, normalised to CD4), percent of T1” value is 115 % of T1 control; the “Lck Total AUC (LCK found with CD4, normalised to CD4), percent of T1” value is 113 % of T1 control. In addition, in the test with T1-TP (3C), the “Lck DRM AUC (LCK found with CD4, normalised to CD4), percent of T1” value is 86.8 % of T1 control; the “Lck DSM AUC (LCK found with CD4, normalised to CD4), percent of T1” value was 103 % of T1 control; the “Lck Total AUC (LCK found with CD4, normalised to CD4), percent of T1” value is 101 % of T1 control.
